In paper PMC5978004:

Molecular target: human MALT1 (mammalian expression) (human) (UniProt Q9UDY8)
UniProt Q9UDY8, sequence (Q9UDY8 whole entry): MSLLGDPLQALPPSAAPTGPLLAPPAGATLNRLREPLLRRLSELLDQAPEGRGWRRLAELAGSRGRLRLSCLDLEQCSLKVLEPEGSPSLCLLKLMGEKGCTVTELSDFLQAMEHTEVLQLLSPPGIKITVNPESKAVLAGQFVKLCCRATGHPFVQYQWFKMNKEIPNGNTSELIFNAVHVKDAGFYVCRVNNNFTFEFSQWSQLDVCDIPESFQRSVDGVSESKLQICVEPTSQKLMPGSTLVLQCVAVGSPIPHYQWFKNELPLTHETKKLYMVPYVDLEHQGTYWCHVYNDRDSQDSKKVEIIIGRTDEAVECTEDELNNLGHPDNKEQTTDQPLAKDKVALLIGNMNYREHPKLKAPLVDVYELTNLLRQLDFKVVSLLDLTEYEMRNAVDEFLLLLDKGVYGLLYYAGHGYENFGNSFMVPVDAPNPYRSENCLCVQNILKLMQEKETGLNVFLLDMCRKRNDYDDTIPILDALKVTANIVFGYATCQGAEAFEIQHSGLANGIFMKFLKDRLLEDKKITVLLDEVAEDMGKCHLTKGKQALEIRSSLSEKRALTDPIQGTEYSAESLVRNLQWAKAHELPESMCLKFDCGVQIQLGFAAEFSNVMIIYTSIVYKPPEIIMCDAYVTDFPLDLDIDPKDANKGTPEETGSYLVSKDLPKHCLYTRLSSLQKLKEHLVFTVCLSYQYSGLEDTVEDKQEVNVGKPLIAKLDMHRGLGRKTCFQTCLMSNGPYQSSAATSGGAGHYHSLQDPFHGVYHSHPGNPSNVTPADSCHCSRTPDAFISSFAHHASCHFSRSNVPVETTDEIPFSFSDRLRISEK

Work on “Nematostella vectensis Bcl10 (NvBcl10), E-tagged, in pCAGGS (natural protein)” yielded a human MALT1-dependent NF-κB luciferase reporter induction in MALT1-deficient HEK293T cells with or without human MALT1 of 2.5 fold.
